Results: article PMC7810697, “Sarcolipin alters SERCA1a interdomain communication by impairing binding of both calcium and ATP” (Scientific Reports, 2021)

Columns and labels:
[1] = target: T1, DDM-solubilized SR (native SERCA1a) (Oryctolagus cuniculus, UniProt P04191); experiment: Kinetics of phosphorylation from [γ32P]ATP, DDM-solubilized SR; type: biochemical, rabbit; settings: calcium-deprived state
T1 construct: DDM-solubilized native SERCA1a purification; from tissue; host or cells: rabbit skeletal muscle sarcoplasmic reticulum
Description: (§1) Transient formation of the phosphoenzyme intermediate was measured after incubation with [γ^32P]ATP followed by acid quenching, and filtration. For most experiments, 50 µL of enzyme at 10 µg/mL in a buffer containing 50 mM Tes-Tris pH7.5, 1 mM KCl, 5 mM MgCl2, 20% glycerol (w/w) and 0.5 mg/mL DDM, supplemented or not with SLN, was stored on ice. Concentrations of EGTA and calcium are specified in figure legends in order to reach the appropriate [Ca^2+]free and therefore the desired starting state for the ATPase. For kinetics of phosphorylation, we initiate reaction by addition of 2 µM [γ^32P]ATP (5 mCi/µmole), and calcium at 100 µM when specified. Reaction was quenched by addition of 2 mL of cold quenching medium (500 mM TCA + 30 mM H3P0_4) under vigorous mixing, and immediately stored on ice for 20–30 min to improve precipitation, a period of time critical for retention of the precipitate on the filter in presence of detergent. This was followed by filtration on GS filters (Millipore, Saint Quentin-Fallavier, France) and careful rinsing of the filters with diluted quenching medium (50 mM TCA + 3 mM H3P0_4). The amount of radioactivity bound to the filter was estimated by liquid scintillation counting (Perkin Elmer TriCarb Counter). […]

[2] = target: T1, DDM-solubilized SR (native SERCA1a); experiment: Vanadate inhibition of phosphoenzyme formation, DDM-solubilized SR; type: biochemical, rabbit; settings: Suppl. Fig. 7
Description: as §1

B1: SR: DDM-solubilized native rabbit sarco-endoplasmic reticulum SERCA1a, still containing native SLN (protein)
chain: MEAAHSKSTEECLAYFGVSETTGLTPDQVKRHLEKYGHNELPAEEGKSLWELVIEQFEDLLVRILLLAACISFVLAWFEEGEETITAFVEPFVILLILIANAIVGVWQERNAENAIEALKEYEPEMGKVYRADRKSVQRIKARDIVPGDIVEVAVGDKVPADIRILSIKSTTLRVDQSILTGESVSVIKHTEPVPDPRAVNQDKKNMLFSGTNIAAGKALGIVATTGVSTEIGKIRDQMAATEQDKTPLQQKLDEFGEQLSKVISLICVAVWLINIGHFNDPVHGGSWIRGAIYYFKIAVALAVAAIPEGLPAVITTCLALGTRRMAKKNAIVRSLPSVETLGCTSVICSDKTGTLTTNQMSVCKMFIIDKVDGDFCSLNEFSITGSTYAPEGEVLKNDKPIRSGQFDGLVELATICALCNDSSLDFNETKGVYEKVGEATETALTTLVEKMNVFNTEVRNLSKVERANACNSVIRQLMKKEFTLEFSRDRKSMSVYCSPAKSSRAAVGNKMFVKGAPEGVIDRCNYVRVGTTRVPMTGPVKEKILSVIKEWGTGRDTLRCLALATRDTPPKREEMVLDDSSRFMEYETDLTFVGVVGMLDPPRKEVMGSIQLCRDAGIRVIMITGDNKGTAIAICRRIGIFGENEEVADRAYTGREFDDLPLAEQREACRRACCFARVEPSHKSKIVEYLQSYDEITAMTGDGVNDAPALKKAEIGIAMGSGTAVAKTASEMVLADDNFSTIVAAVEEGRAIYNNMKQFIRYLISSNVGEVVCIFLTAALGLPEALIPVQLLWVNLVTDGLPATALGFNPPDLDIMDRPPRSPKEPLISGWLFFRYMAIGGYVGAATVGAAAWWFMYAEDGPGVTYHQLTHFMQCTEDHPHFEGLDCEIFEAPEPMTMALSVLVTIEMCNALNSLSENQSLMRMPPWVNIWLLGSICLSMSLHFLILYVDPLPMIFKLKALDLTQWLMVLKISLPVIGLDEILKFIARNYLEG
[1]; Suppl. Fig. 5A
  maximum level of phosphorylated intermediate, DDM-solubilized SR: 6.39+/-0.20 nmoles EP/mg ATPase
[1]; no SLN added (native SLN present), three replicates from two independent experiments, p<0.0001 vs recS1a alone, p=0.002 vs recS1a+Palm-SLN or recS1a+SLN
  t1/2 of phosphorylation, DDM-solubilized SR: 10.4 s⁻¹
[2]
  EPmax (vanadate series), DDM-solubilized SR: 3.66+/-0.54 nmoles/mg of ATPase
